Test results from patent US20070098715A1 (published 2007).
Where two headings read alike, the source gives them in different places.

B1: Ten-M2-120 (antibody, V domains shown)
VH: QVQLVESGGGVVQPGRSLRLSCAASGFTFSSYGMHWVRQAPGKGLEWVAVLWYDGSKKFYADSVKGRFTISRDNSKNTLYLQMNSLRAEDTALYYCARGPWNYYYYGMDVWGQGTTVTVSS
VL: EIVLTQSPGTLSLSPGERATLSCRASQSVISSYLAWYQQKPGQAPRLLIYNASNRATGIPDRFSGSGSGTDFTLTISRLEPEDFAVYYCQQYGSSPITFGQGTRLEIK
notes: also called Mab120
B2: Ten-M2-140 (antibody, IgG2, V domains shown)
VH: QEQLVESGGGVVQPGRSLRLSCAASGFTFSSHGMHWVRQAPGKGLEWVAIIWYDGSKKFYADSVKGRFTISRDNSKNTLSLQMNSLRAEDTAVYYCARGPWNYYYYGMDVWGQGTTVTVSS
VL: EIVLTQSPGTLSLSPGERATFSCRASQSVISNYLAWYQQKPGQAPRLLIYNTSSRATGIPGRFSGGGSGTDFTLTITRLEPEDFAVYYCQQYGSSPITFGQGTRLEIK
notes: Fully human mAb from IgG2 kappa XenoMouse (B cell clone); also called Mab140; anti-Ten-M2 monoclonal antibody clone 140
B3: Ten-M2-188 (antibody, IgG2, V domains shown)
VH: QVQLVQSGAEVKKPGASVKVSCKASGYTFTGYYMHWVRQAPGQGLEWMGWINPNSGGTNSAQRFQGRVTMTRDTSIYTAYMELSRLRSDDTAVYYCAREYRSGRYYNGMDVWGQGTTVTVSS
VL: DIQLTQSPSSLSASVGDRVTITCRASQDISNYLAWYQQKPGKVPKLLIYAASTLQSGVPSRFSGSGSGTDFTLTISSLQPEDIATYSCQKYSSTPFTFGPGTKVDIK
notes: Fully human mAb from IgG2 kappa XenoMouse (B cell clone)
B4: Ten-M2-179 (antibody, IgG2, V domains shown)
VH: QVQLVESGGGVVQPGRSLRLSCAASGFTFSSYGMHWVRQAPGKGLEWVAFIWYDGSNKYYADSVKGRFTISRDNSKNTLYLQMNSLRAEDTAVYYCARDGSSGWYFFDYWGQGTLVTVSS
VL: DIVMTQTPLSLSVTPGQPASISCKSSQSLLHSDRQTYLFWYLQKPGQPPQLLIYEVSNRFSGVPDRFSGSGSGTDFTLKISRVEAEDVGVYYCMQSIQLPPTFGPGTKVDIK
notes: Fully human mAb from IgG2 kappa XenoMouse (B cell clone); also called Mab179
B5: Ten-M2-213 (antibody, IgG2, V domains shown)
VH: QVQLVQSGAEVKKPGASVKVSCKASGYTFTNYDINWVRQATGQGLEWMGWMNPNSGNTGYAQKFQGRVTMTRNTSIRTAYMELSSLRSEDTAVYYCARGPGGSFYYYYGMDVWGQGTTVTVSS
VL: DIQMTQSPSSLSASVGDRVTITCRASQSISSYLNWYQQKPGKAPNLLIYTASSLQSGVPSRFSGSGSGTVFTLTISSLQPEDFATYYCQQSSSTPFTFGPGTKVDFK
notes: Fully human mAb from IgG2 kappa XenoMouse (B cell clone); also called Mab 213
B6: Ten-M2-199 (antibody, IgG2, V domains shown)
VH: QVQLVQSGAEVKKPGASVKVSCKASGYTFTNYDINWLRQASGQGLEWMGWMNPDSGNTGYAQRFQGRVTMTRDTSISTAYMELSSLRSEDTAVYYCARYISSLHYYYYGMDVWGQGTTVTVSS
VL: DIQMTQSPSSLSASVGDRVTITCRASQSINSYLNWYQQKPGKAPRLLIYAASNLQSGVPSRFSGSGSGTDFTLTISSLQPEDFSTYYCQQSHNTPLTFGGGTKVEIK
notes: Fully human mAb from IgG2 kappa XenoMouse (B cell clone); also called Mab199
B7: Ten-M2-7.1.1 (antibody, IgG2, V domains shown)
VH: QVQLVESGGGVVQPGRSLRLSCAASGFTFSNYGMHWVRQAPGKGLEWVAVIPFDGSNKYYADSVKGRFTISRDNSKNTLYLQTNSLRAEDTAVYYCARNWGYFDYWGQGTLVTVSS
VL: DIVMTQSPLSLPVTPGEPASISCRTSQSLLQSNGYNYLDWYLQKPGQSPQLLIYLGSSRASGVPDRFSGSGSGTDFTLKISRVEAEDVGVYYCMQALQTLTFGGGTKVEIK
notes: Hybridoma clone from IgG2 kappa XenoMouse; tested as hybridoma supernatant
B8: Ten-M2-7.2.1 (antibody, IgG2, V domains shown)
VH: QVQLQESGPGLVKPSETLSLTCTVSGGSISSYYWSWIRQPPGKGLEWIGYIYYSGNTNYNPSLKSRVTISVDTSKNQFSLKLSSVTAADTAVYYCARDIVVVPAARDYDYYYGMDVWGQGTTVTVSS
VL: EIVLTQFPGTLSLSPGESAPLSCRASQSVSSIDLVWYQQKPGQAPRLLIYGASSRATGIPDRFSVSGSGTDFTLTISRLEPEDFAVYYCQQYGSSPFTFGPGTKVDIK
notes: as for B7
B9: Ten-M2-8.1 (antibody, IgG2, V domains shown)
VH: QVQLQQWGAGLLKPSETLSLTCAVYGGSFSHYYWSWIRQPPGKGLEWIGEINHSGSTNYNPSLKSRVTISVDTSKNQFSLKLSSVTAADTAVYYCARDITMVRGLGGMDVWGQGTTVTVSS
VL: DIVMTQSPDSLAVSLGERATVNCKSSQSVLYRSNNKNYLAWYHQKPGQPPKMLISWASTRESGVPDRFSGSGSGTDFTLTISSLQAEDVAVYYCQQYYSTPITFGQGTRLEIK
notes: as for B7

Columns and labels:
[1] = molecular target: T1, Ten-M2 antigen (BiaCore analyte) (UniProt Q9NT68 399-2774)
[2] = molecular target: T1, Ten-M2 antigen (BiaCore analyte); remark: listed apart in the source
[3] = molecular target: T2, Ten-M2 endogenously expressed on human cancer cell lines (SNB-19 and others) (human, UniProt Q9NT68 1-2774); assay: cell-based or functional assay
[4] = molecular target: T2, Ten-M2 endogenously expressed on human …; assay: flow cytometry on SNB-19 cells at 4° C., Alexa647 anti-human IgG secondary
[5] = molecular target: T1, Ten-M2 antigen (BiaCore analyte); remark: listed apart in the source
[6] = molecular target: T1, Ten-M2 antigen (BiaCore analyte); remark: listed apart in the source
[7] = molecular target: T3, soluble Ten-M2 antigen (FIG. 1B), Ten-M2 amino acids 400-2733 with 6xHis-V5 tag (human, UniProt Q9NT68 399-2774); assay: ELISA, plate coated with soluble Ten-M2 antigen, hybridoma supernatant
T3 construct: also called Curagen 007-V5HIS; soluble Ten-M2 (Cur007) ECD

Binder	koff [1] [s⁻¹]	kon [1] [M⁻¹ s⁻¹]	Kd [2] [nM]	% Internalization (SNB-19 cells) [3] [%]	Internalized Fluorescence (SNB-19 cells, 37° C. 30 min, glutathione-resistant) [3]	Total Bound Fluorescence [4]	Kd [5] [nM]	koff [6] [s⁻¹]	Kd [1] [nM]	binding result [7]
B1	0.000465	26200	18	40	26.4	58.4				
B2	0.000605	40100	15	44	36.5	75.3				
B3				48	22.1	41.6				
B4		16300		29	13.6	89.6	≤ 0.61	≤ 1e-05		
B5	3.22e-05	29000		46	40.2	79.7			1.1	
B6		23300		46	32.9	64.8	≤ 0.043	≤ 1e-06		
B7										binds
B8										binds
B9										binds
